Results: article PMC6303191 (Immunity, 2018)
Several values for one entry are separate records, joined by “and”; a condition that tells them apart may be missing. Identical values can stand only once.

What was measured:
[1] = target: T1, eOD-GT8 (monomer), synthetic construct eOD-GT8-Avi-3C-His (synthetic construct (engineered HIV-1 …))
[2] = target: T1, eOD-GT8 (monomer), synthetic construct …; assay: SPR; details: both partners purified
[3] = target: T2, eOD-GT6, synthetic construct eOD-GT6-Avi-3C-His (synthetic construct (engineered HIV-1 …)); assay: SPR; details: both partners purified
T2 construct: source: produced in house (Duke Human Vaccine Institute and VRC/NIAID)
T2 sequence (heavy, as listed by the source): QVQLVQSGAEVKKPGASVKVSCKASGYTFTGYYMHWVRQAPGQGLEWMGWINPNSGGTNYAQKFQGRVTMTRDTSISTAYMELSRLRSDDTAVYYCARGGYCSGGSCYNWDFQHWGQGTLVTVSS

[4] = target: eOD-GT8 (24-mer) (synthetic construct (engineered HIV-1 …)); assay: BLI; details: both partners purified
Chain of eOD-GT8 (24-mer) (synthetic construct (engineered HIV-1 …)) (heavy, as listed by the source): as above

[5] = target: eOD-GT8 (heptamer) (synthetic construct (engineered HIV-1 …)); assay: BLI; details: both partners purified
Chain of eOD-GT8 (heptamer) (synthetic construct (engineered HIV-1 …)) (heavy, as listed by the source): as above

[6] = target: Ubiquitin Protein Ligase E3A (UBE3A) (Homo sapiens, assumed, UniProt Q05086); assay: ELISA; details: both partners purified
Chain of Ubiquitin Protein Ligase E3A (UBE3A) (Q05086 whole entry): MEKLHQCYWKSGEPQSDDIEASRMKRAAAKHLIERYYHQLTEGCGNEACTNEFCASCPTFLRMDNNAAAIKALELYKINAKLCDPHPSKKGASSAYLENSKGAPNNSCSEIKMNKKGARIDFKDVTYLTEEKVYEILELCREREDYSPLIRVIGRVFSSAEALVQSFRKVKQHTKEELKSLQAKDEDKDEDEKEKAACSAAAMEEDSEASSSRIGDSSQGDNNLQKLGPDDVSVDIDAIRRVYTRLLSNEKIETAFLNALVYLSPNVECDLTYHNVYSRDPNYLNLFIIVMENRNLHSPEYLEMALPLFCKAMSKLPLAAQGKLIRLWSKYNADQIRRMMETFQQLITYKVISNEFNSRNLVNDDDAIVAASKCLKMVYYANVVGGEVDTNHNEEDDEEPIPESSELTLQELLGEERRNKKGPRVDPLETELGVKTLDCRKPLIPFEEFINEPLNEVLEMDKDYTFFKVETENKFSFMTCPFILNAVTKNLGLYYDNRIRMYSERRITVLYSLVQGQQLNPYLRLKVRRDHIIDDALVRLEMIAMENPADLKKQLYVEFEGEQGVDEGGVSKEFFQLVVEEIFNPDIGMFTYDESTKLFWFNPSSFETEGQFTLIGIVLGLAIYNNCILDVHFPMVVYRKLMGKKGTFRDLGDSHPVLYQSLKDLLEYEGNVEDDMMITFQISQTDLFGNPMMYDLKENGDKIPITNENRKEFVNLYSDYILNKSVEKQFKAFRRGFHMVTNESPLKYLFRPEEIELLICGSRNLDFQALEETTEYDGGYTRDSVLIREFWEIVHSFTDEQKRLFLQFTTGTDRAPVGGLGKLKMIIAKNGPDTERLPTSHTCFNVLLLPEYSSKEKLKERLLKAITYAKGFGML

[7] = target: T3, Centromere protein B (Homo sapiens (product PRO-390 from …, UniProt P07199)); assay: ELISA; details: both partners purified
T3 construct: also called centromere B
T3 sequence (P07199 whole entry): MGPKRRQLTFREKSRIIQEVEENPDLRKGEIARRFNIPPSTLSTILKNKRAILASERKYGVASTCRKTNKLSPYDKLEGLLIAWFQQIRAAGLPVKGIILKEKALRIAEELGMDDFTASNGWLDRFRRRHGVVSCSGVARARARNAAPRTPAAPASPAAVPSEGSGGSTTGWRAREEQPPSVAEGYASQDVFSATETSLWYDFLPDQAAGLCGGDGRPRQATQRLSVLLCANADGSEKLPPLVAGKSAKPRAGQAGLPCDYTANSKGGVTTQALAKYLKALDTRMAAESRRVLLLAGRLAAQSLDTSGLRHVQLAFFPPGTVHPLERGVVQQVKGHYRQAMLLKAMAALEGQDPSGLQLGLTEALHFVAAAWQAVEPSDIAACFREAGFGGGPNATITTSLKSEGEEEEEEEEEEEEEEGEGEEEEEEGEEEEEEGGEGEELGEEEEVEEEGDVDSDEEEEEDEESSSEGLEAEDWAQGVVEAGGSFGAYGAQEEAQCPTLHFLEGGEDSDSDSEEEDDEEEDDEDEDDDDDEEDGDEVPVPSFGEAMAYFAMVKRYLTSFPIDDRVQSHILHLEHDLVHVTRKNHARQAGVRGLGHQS

[8] = target: Jo-1 antigen (Bos taurus (assumed), UniProt Q2KI84); assay: ELISA; details: both partners purified
Chain of Jo-1 antigen (P12081 whole entry): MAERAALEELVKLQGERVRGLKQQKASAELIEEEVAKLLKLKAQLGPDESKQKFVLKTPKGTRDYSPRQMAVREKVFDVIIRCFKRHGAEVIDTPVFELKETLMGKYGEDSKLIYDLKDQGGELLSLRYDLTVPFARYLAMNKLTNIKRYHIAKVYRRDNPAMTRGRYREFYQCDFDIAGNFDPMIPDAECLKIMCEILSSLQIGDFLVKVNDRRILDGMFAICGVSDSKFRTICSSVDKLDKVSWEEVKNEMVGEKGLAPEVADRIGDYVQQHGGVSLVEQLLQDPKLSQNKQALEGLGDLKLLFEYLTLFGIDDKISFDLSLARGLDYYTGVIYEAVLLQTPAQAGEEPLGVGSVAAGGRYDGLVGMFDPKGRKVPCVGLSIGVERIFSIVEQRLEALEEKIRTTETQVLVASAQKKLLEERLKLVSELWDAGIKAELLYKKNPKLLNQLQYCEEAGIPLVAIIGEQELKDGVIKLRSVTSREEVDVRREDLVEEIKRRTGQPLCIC

[9] = target: SSB (La) antigen (Bos taurus (assumed), UniProt P10881); assay: ELISA; details: both partners purified
Chain of SSB (La) antigen (P05455 whole entry): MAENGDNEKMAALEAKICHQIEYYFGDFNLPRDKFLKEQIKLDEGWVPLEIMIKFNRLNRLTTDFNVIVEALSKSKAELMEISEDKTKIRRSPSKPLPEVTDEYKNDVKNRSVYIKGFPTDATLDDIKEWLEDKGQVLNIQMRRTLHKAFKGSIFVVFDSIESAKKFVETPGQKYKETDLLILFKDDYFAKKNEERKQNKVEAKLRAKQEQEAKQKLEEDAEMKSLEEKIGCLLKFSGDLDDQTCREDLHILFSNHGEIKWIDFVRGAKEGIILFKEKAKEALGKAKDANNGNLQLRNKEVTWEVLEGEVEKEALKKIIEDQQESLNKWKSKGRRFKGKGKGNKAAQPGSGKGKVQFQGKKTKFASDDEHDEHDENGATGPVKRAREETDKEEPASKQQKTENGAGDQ

[10] = target: Scl-70 antigen (Bos taurus (assumed), UniProt A0AAA9TV68); assay: ELISA; details: both partners purified
Chain of Scl-70 antigen (P11387 whole entry): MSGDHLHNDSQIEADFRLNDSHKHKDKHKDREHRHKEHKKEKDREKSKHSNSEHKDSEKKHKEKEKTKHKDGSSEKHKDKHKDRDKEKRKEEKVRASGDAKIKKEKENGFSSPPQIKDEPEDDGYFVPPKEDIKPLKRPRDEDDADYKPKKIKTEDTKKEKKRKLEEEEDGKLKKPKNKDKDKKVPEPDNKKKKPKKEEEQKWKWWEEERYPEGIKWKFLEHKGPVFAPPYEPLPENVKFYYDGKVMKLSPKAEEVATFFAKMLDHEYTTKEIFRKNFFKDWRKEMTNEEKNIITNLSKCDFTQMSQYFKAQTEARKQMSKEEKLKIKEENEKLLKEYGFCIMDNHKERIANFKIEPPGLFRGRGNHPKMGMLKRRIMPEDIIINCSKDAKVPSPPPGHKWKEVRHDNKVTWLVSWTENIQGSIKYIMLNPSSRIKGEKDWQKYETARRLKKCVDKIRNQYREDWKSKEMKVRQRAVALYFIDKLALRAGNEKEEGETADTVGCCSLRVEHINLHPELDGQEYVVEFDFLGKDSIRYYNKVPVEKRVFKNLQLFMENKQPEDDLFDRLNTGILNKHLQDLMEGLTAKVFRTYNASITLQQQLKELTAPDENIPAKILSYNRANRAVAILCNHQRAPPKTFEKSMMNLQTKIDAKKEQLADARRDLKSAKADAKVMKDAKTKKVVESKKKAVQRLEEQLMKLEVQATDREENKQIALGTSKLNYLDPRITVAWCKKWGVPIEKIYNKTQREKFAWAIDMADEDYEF

Binder | binding result [1] | binding result [6] | other results
VRC01 VJ.Rev (antibody, V domains shown) VH: not shown VL: EIVLTQSPATLSLSPGERATLSCRASQSVSSYLAWYQQKPGQAPRLLIYDASNRATGIPARFSGSGSGTDFTLTISSLEPEDFAVYYCQQYEFFGQGTKLEIK | binds | – | –
VRC01 V.Rev (antibody, V domains shown) VH: not shown VL: EIVLTQSPGTLSLSPGERATLSCRASQSVSSSYLAWYQQKPGQAPRLLIYGASSRATGIPDRFSGSGSGTDFTLTISRLEPEDFAVYYCQQYEFFGQGTKVQVD | binds | – | –
VRC03 V.Rev (antibody, V domains shown) VH: not shown VL: EIVLTQSPGTLSLSPGERATLSCRASQSVSSSYLAWYQQKPGQAPRLLIYGASSRATGIPDRFSGSGSGTDFTLTISRLEPEDFAVYYCQQFEFFGLGSELEVH | binds | – | –
12A12 V.Rev (antibody, V domains shown) VH: not shown VL: DIQMTQSPSSLSASVGDRVTITCQASQDISNYLNWYQQKPGKAPKLLIYDASNLETGVPSRFSGSGSGTDFTFTISSLQPEDIATYYCAVLEFFGPGTKVEIK | binds | – | –
VRC18b V.Rev (antibody, V domains shown) VH: not shown VL: EIVLTQSPGTLSLSPGERATLSCRASQSVSSSYLAWYQQKPGQAPRLLIYGASSRATGIPDRFSGSGSGTDFTLTISRLEPEDFAVYYCQILEFFGRGTRVEMN | binds | – | –
VRC01 UCA (antibody, V domains shown, also called VRC01 lineage unmutated common ancestor; VRC01 UCA IgG) VH: not shown VL: EIVLTQSPGTLSLSPGERATLSCRASQSVSSSYLAWYQQKPGQAPRLLIYGASSRATGIPDRFSGSGSGTDFTLTISRLEPEDFAVYYCQQYEFFGQGTKLEIK | – | – | Kd [2]: < 0.1 nM and 0.25 nM; Kd [3]: 2400 nM and 2500 nM; koff [3]: 0.068 s⁻¹; kon [3]: 3000 M⁻¹ s⁻¹; binding result [4]: binds; binding result [5]: binds
VRC01 L34M (antibody, V domains shown) VH: QVQLVQSGGQMKKPGESMRISCRASGYEFIDCTMNWIRLAPGKRPEWMGWLKPRGGAVNYARPLQGRVTMTRDVYSDTAFLELRSLTVDDTAVYFCTRGKNCDYNWDFEHWGRGTPVIVSS VL: EIVLTQSPGTLSLSPGETAIISCRTSQYGSLAWYQQRPGQAPRLVIYSGSTRAAGIPDRFSGSRWGPDYNLTISNLESGDFGVYYCQQYEFFGQGTKVQVD | – | binds | –
VRC20 V.Rev (antibody, V domains shown) VH: not shown VL: QSALTQPASVSGSPGQSITISCTGTSSDVGGYNYVSWYQQHPGKAPKLMIYEVSNRPSGVSNRFSGSKSGNTASLTISGLQAEDEADYYCNAFEFFGGGTKLTVL | – | – | binding result [7]: binds
VRC23 V.Rev (antibody, V domains shown) VH: not shown VL: EIVMTQSPATLSVSPGERATLSCRASQSVSSNLAWYQQKPGQAPRLLIYGASTRATGIPARFSGSGSGTEFTLTISSLQSEDFAVYYCQQYETFGQGTKVEIK | – | – | binding result [8]: binds; binding result [9]: binds; binding result [10]: binds; binding result [7]: binds
VRC01 with 33TL34 reverted to the germline-encoded 33YM34 (antibody, V domains shown) VH: QVQLVQSGGQMKKPGESMRISCRASGYEFIDCYMNWIRLAPGKRPEWMGWLKPRGGAVNYARPLQGRVTMTRDVYSDTAFLELRSLTVDDTAVYFCTRGKNCDYNWDFEHWGRGTPVIVSS VL: EIVLTQSPGTLSLSPGETAIISCRTSQYGSLAWYQQRPGQAPRLVIYSGSTRAAGIPDRFSGSRWGPDYNLTISNLESGDFGVYYCQQYEFFGQGTKVQVD | – | no binding (tested: 100 μg/ml) | –
VRC02 with 33TL34 reverted to the germline-encoded 33YM34 (antibody, V domains shown) VH: QVQLVQSGGQMKKPGESMRISCQASGYEFIDCYMNWVRLAPGRRPEWMGWLKPRGGAVNYARPLQGRVTMTRDVYSDTAFLELRSLTADDTAVYYCTRGKNCDYNWDFEHWGRGTPVTVSS VL: EIVLTQSPGTLSLSPGETAIISCRTSQYGSLAWYQQRPGQAPRLVIYSGSTRAAGIPDRFSGSRWGPDYNLTIRNLESGDFGLYYCQQYEFFGQGTKVQVD | – | no binding (tested: 100 μg/ml) | –
DH651.1 with 33TL34 reverted to the germline-encoded 33YM34 (antibody, V domains shown) VH: QVQLVQSGGQMKKPGESMRISCRTSGYEFIECYMNWIRLAPGRRPEWMGWLKPRGGAVNYARSFQGRVTMTRDVYSDTAFLELRSLTPDDTAVYFCTRGKDCNYNWDFEHWGRGTPVTVSS VL: EIVLTQSPHPALLSPGETAIISCRTSQYGSLAWYQQRPGQAPRLVIYSGSTRAAGIPDRFSGSRWGPDYNLTISNLESGDLGVYYCQQYEFFGQGTKVQVD | – | no binding (tested: 100 μg/ml) | –
DH651.2 with 33TL34 reverted to the germline-encoded 33YM34 (antibody, V domains shown) VH: QVQLVQSGAQMKKPGESMRISCRASGYEFIDCYMNWIRLAPGRRPEWMGWLKPRGGAVNYARPLQGRVTMTRDVYSDTAFLELRSLTVDDTAVYFCTRGKTCDYNWDFAHWGQGTPVTVSS VL: EIVLTQSPGTLSLSPGETAIISCRTSQYGSLAWYQQRPGQAPRLVIYSGSTRAAGIPDRFSGSRWGPEYNLTISNLESGDFGVYYCQQYEFFGQGTKVQVD | – | no binding (tested: 100 μg/ml) | –
DH651.4 with 33TL34 reverted to the germline-encoded 33YM34 (antibody, V domains shown) VH: QVQLVQSGGQMKKPGESMRISCRASGYEFIDCYMNWIRLAPGRRPEWMGWLKPRGGAVSYARPLQGRVTMTRDVYSDTAFLELRSLTVDDTAVYFCTRGKTCDYNWDFAHWGQGTPVTVSS VL: EIVLTQSPGTLSLSPGETAIISCRTSQYGSLAWYQQRPGQAPRLVIYSGSTRAAGIPDRFSGSRWGPEYNLTISNLESGDFGVYYCQQYEFFGQGTKVQVD | – | no binding (tested: 100 μg/ml) | –
VRC01 T33Y (antibody, V domains shown) VH: QVQLVQSGGQMKKPGESMRISCRASGYEFIDCYLNWIRLAPGKRPEWMGWLKPRGGAVNYARPLQGRVTMTRDVYSDTAFLELRSLTVDDTAVYFCTRGKNCDYNWDFEHWGRGTPVIVSS VL: EIVLTQSPGTLSLSPGETAIISCRTSQYGSLAWYQQRPGQAPRLVIYSGSTRAAGIPDRFSGSRWGPDYNLTISNLESGDFGVYYCQQYEFFGQGTKVQVD | – | no binding (tested: 100 μg/ml) | –
